Twelve molecules from patent US20140294898A1 (published 2014) can be followed below.

The target in experiment [1] is T1, human PD-L1 (human, UniProt Q9NZQ7 19-239, limits assumed).
T1 construct: also called Hu PD-L1; hPD-L1
As to the kind of experiment: cell binding assay, inhibition of human PD-L1/PD-1 binding (cell format not given).
T1 sequence (Q9NZQ7 19-239 limits assumed): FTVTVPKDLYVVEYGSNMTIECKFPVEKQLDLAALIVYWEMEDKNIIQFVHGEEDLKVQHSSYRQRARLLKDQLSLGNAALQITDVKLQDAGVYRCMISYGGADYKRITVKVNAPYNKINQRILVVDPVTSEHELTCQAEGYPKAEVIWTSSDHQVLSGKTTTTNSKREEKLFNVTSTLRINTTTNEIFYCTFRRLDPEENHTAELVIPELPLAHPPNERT

The target in experiment [2] is T2, hPDL1(19-239)-TVMV-His (human, UniProt Q9NZQ7 19-239).
T2 construct: The construct name says 19-239, the running text says amino acids 18-239; Expressed in HEK293T cells; also called PD-L1-His; PD-L1-TVMV-His
Briefly: HTRF competition, PD-1-Ig (20 nM) binding to human PD-L1-His (10 nM). On the procedure: All binding studies were performed in an HTRF assay buffer consisting of dPBS supplemented with 0.1% (w/v) bovine serum albumin and 0.05% (v/v) Tween-20. […] PD-L1 fusion proteins from either human, cynomologous macaques, or mouse were used. HTRF detection was achieved using europium crypate-labeled anti-Ig monoclonal antibody (1 nM final) and allophycocyanin (APC) labeled anti-His monoclonal antibody (20 nM final). Antibodies were diluted in HTRF detection buffer and 5 μl was dispensed on top of binding reaction. The reaction was allowed to equilibrate for 30 minutes and signal (665 nm/620 nm ratio) was obtained using an EnVision fluorometer. […]
HTRF experiments were performed essentially as outlined supra. Variant macrocyclic peptides were created as outlined herein.
(In general: In TR-FRET formats the signal depends on donor and acceptor labels being close together.)

For experiment [3], the target named is T3, human PD-L1 (human, UniProt Q9NZQ7 19-239, limits assumed).
T3 construct: also called Hu PD-L1; hPD-L1
As to the kind of experiment: cell binding assay, inhibition of human PD-L1/PD-1 binding on cells (cell format not given).
T3 sequence (Q9NZQ7 19-239 limits assumed): as above

Positions of bridges follow the written chain, without caps; N, C: chain ends. Non-standard residues stand in square brackets, D forms with d. NMeNle = CCCC[C@H](NC)C(=O)O; NMeA = CN[C@@H](C)C(=O)O

T2 sequence (Q9NZQ7 other isoform, or with tags, fused parts or gaps limits assumed): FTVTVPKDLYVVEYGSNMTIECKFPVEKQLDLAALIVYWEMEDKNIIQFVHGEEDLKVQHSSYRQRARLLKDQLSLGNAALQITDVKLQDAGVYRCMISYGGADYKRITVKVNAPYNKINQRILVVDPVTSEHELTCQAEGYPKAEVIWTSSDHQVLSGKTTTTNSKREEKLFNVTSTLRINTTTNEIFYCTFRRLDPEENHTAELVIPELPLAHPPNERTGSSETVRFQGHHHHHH

B1: Compound No. 71 (peptide)
peptide: FFXGDVFYGWYLCG
HELM: PEPTIDE1{[O=C(C[*:3])[*:2]].F.[meF].[CCCC[C@@H](C(=O)[*:2])N(C)[*:1]].[Sar].D.V.[meF].Y.[Sar].W.Y.L.C.G.[am]}$PEPTIDE1,PEPTIDE1,1:R3-14:R3$$$V2.0
SMILES: CCCC[C@H]1C(=O)N(C)CC(=O)N[C@@H](CC(=O)O)C(=O)N[C@@H](C(C)C)C(=O)N(C)[C@@H](Cc2ccccc2)C(=O)N[C@@H](Cc2ccc(O)cc2)C(=O)N(C)CC(=O)N[C@@H](Cc2c[nH]c3ccccc23)C(=O)N[C@@H](Cc2ccc(O)cc2)C(=O)N[C@@H](CC(C)C)C(=O)N[C@H](C(=O)NCC(N)=O)CSCC(=O)N[C@@H](Cc2ccccc2)C(=O)N(C)[C@@H](Cc2ccccc2)C(=O)N1C
notes: Macrocyclic peptide of the Formula II series; X = norleucine backbone (N-methylated)
As to B1, the IC50 – broadly, the concentration that gives 50% inhibition – in experiment [1] is 10 nM.

B2: Compound No. 83 (peptide)
peptide: FFXGDVFAGWYLCG
HELM: PEPTIDE1{[O=C(C[*:3])[*:2]].F.[meF].[CCCC[C@@H](C(=O)[*:2])N(C)[*:1]].[Sar].D.V.[meF].A.[Sar].W.Y.L.C.G.[am]}$PEPTIDE1,PEPTIDE1,1:R3-14:R3$$$V2.0
SMILES: CCCC[C@H]1C(=O)N(C)CC(=O)N[C@@H](CC(=O)O)C(=O)N[C@@H](C(C)C)C(=O)N(C)[C@@H](Cc2ccccc2)C(=O)N[C@@H](C)C(=O)N(C)CC(=O)N[C@@H](Cc2c[nH]c3ccccc23)C(=O)N[C@@H](Cc2ccc(O)cc2)C(=O)N[C@@H](CC(C)C)C(=O)N[C@H](C(=O)NCC(N)=O)CSCC(=O)N[C@@H](Cc2ccccc2)C(=O)N(C)[C@@H](Cc2ccccc2)C(=O)N1C
notes: Variant of Compound No. 71: Tyr8 to Ala
As to B2, the IC50 in experiment [1] turned out to be 75 nM. Against the preceding molecule, the IC50 is about 7.5-fold higher.

B3: Compound No. 80 (peptide)
peptide: FFXGDAFYGWYLCG
HELM: PEPTIDE1{[O=C(C[*:3])[*:2]].F.[meF].[CCCC[C@@H](C(=O)[*:2])N(C)[*:1]].[Sar].D.A.[meF].Y.[Sar].W.Y.L.C.G.[am]}$PEPTIDE1,PEPTIDE1,1:R3-14:R3$$$V2.0
SMILES: CCCC[C@H]1C(=O)N(C)CC(=O)N[C@@H](CC(=O)O)C(=O)N[C@@H](C)C(=O)N(C)[C@@H](Cc2ccccc2)C(=O)N[C@@H](Cc2ccc(O)cc2)C(=O)N(C)CC(=O)N[C@@H](Cc2c[nH]c3ccccc23)C(=O)N[C@@H](Cc2ccc(O)cc2)C(=O)N[C@@H](CC(C)C)C(=O)N[C@H](C(=O)NCC(N)=O)CSCC(=O)N[C@@H](Cc2ccccc2)C(=O)N(C)[C@@H](Cc2ccccc2)C(=O)N1C
notes: Variant of Compound No. 71: Val6 to Ala
As to B3, the concentration for half-maximal inhibition (IC50) in experiment [1] is 723 nM.

B4: Compound No. 86 (peptide)
peptide: FFXGDVFYGWALCG
HELM: PEPTIDE1{[O=C(C[*:3])[*:2]].F.[meF].[CCCC[C@@H](C(=O)[*:2])N(C)[*:1]].[Sar].D.V.[meF].Y.[Sar].W.A.L.C.G.[am]}$PEPTIDE1,PEPTIDE1,1:R3-14:R3$$$V2.0
SMILES: CCCC[C@H]1C(=O)N(C)CC(=O)N[C@@H](CC(=O)O)C(=O)N[C@@H](C(C)C)C(=O)N(C)[C@@H](Cc2ccccc2)C(=O)N[C@@H](Cc2ccc(O)cc2)C(=O)N(C)CC(=O)N[C@@H](Cc2c[nH]c3ccccc23)C(=O)N[C@@H](C)C(=O)N[C@@H](CC(C)C)C(=O)N[C@H](C(=O)NCC(N)=O)CSCC(=O)N[C@@H](Cc2ccccc2)C(=O)N(C)[C@@H](Cc2ccccc2)C(=O)N1C
notes: macrocyclic peptide cyclized via the ClAc moiety with the downstream cysteine; variant of Compound No. 71 (Ala at 11)
Turning to B4, the 50% inhibitory concentration (IC50) in experiment [2] was 820 nM.

B5: Compound No. 87 (peptide)
peptide: FFXGDVFYGWYACG
HELM: PEPTIDE1{[O=C(C[*:3])[*:2]].F.[meF].[CCCC[C@@H](C(=O)[*:2])N(C)[*:1]].[Sar].D.V.[meF].Y.[Sar].W.Y.A.C.G.[am]}$PEPTIDE1,PEPTIDE1,1:R3-14:R3$$$V2.0
SMILES: CCCC[C@H]1C(=O)N(C)CC(=O)N[C@@H](CC(=O)O)C(=O)N[C@@H](C(C)C)C(=O)N(C)[C@@H](Cc2ccccc2)C(=O)N[C@@H](Cc2ccc(O)cc2)C(=O)N(C)CC(=O)N[C@@H](Cc2c[nH]c3ccccc23)C(=O)N[C@@H](Cc2ccc(O)cc2)C(=O)N[C@@H](C)C(=O)N[C@H](C(=O)NCC(N)=O)CSCC(=O)N[C@@H](Cc2ccccc2)C(=O)N(C)[C@@H](Cc2ccccc2)C(=O)N1C
notes: macrocyclic peptide cyclized via the ClAc moiety with the downstream cysteine; variant of Compound No. 71 (Ala at 12)
In experiment [2], B5 returned an IC50 of 25 nM.

B6: Compound No. 75 (peptide)
peptide: FFAGDVFYGWYLCG
HELM: PEPTIDE1{[O=C(C[*:3])[*:2]].F.[meF].[meA].[Sar].D.V.[meF].Y.[Sar].W.Y.L.C.G.[am]}$PEPTIDE1,PEPTIDE1,1:R3-14:R3$$$V2.0
SMILES: CC(C)C[C@@H]1NC(=O)[C@H](Cc2ccc(O)cc2)NC(=O)[C@H](Cc2c[nH]c3ccccc23)NC(=O)CN(C)C(=O)[C@H](Cc2ccc(O)cc2)NC(=O)[C@H](Cc2ccccc2)N(C)C(=O)[C@H](C(C)C)NC(=O)[C@H](CC(=O)O)NC(=O)CN(C)C(=O)[C@H](C)N(C)C(=O)[C@H](Cc2ccccc2)N(C)C(=O)[C@H](Cc2ccccc2)NC(=O)CSC[C@@H](C(=O)NCC(N)=O)NC1=O
notes: Variant of Compound No. 71: mNle3 to mAla
In the case of B6, the IC50 in experiment [1] was 438 nM.
{CH2CO}-FLIVIRDRVFRCG-NH2 (thioether N-12, also called Compound 99) [Compound No. 99] showed an IC50 in experiment [3] of 1400 nM.

B7: Compound No. 85 (peptide)
peptide: FFXGDVFYGWYLCG
HELM: PEPTIDE1{[O=C(C[*:3])[*:2]].F.[meF].[CCCC[C@@H](C(=O)[*:2])N(C)[*:1]].[Sar].D.V.[meF].Y.G.W.Y.L.C.G.[am]}$PEPTIDE1,PEPTIDE1,1:R3-14:R3$$$V2.0
SMILES: CCCC[C@H]1C(=O)N(C)CC(=O)N[C@@H](CC(=O)O)C(=O)N[C@@H](C(C)C)C(=O)N(C)[C@@H](Cc2ccccc2)C(=O)N[C@@H](Cc2ccc(O)cc2)C(=O)NCC(=O)N[C@@H](Cc2c[nH]c3ccccc23)C(=O)N[C@@H](Cc2ccc(O)cc2)C(=O)N[C@@H](CC(C)C)C(=O)N[C@H](C(=O)NCC(N)=O)CSCC(=O)N[C@@H](Cc2ccccc2)C(=O)N(C)[C@@H](Cc2ccccc2)C(=O)N1C
notes: macrocyclic peptide cyclized via the ClAc moiety with the downstream cysteine; variant of Compound No. 71 (Gly instead of Sar at 9)
For the molecule B7, the concentration for half-maximal inhibition (IC50) in experiment [2] came out at 191 nM. This counts as sub-micromolar.

B8: Compound No. 4 (peptide)
peptide: {CH2CO}-F[NMeA]NPLRSWRW[NMeNle][NMeNle]LCG-NH2
modifications: thioether N-14
SMILES: CCCC[C@H]1C(=O)N(C)[C@@H](CCCC)C(=O)N[C@@H](CC(C)C)C(=O)N[C@H](C(=O)NCC(N)=O)CSCC(=O)N[C@@H](Cc2ccccc2)C(=O)N(C)[C@@H](C)C(=O)N[C@@H](CC(N)=O)C(=O)N2CCC[C@H]2C(=O)N[C@@H](CC(C)C)C(=O)N[C@@H](CCCNC(=N)N)C(=O)N[C@@H](CO)C(=O)N[C@@H](Cc2c[nH]c3ccccc23)C(=O)N[C@@H](CCCNC(=N)N)C(=O)N[C@@H](Cc2c[nH]c3ccccc23)C(=O)N1C
notes: also called Compound 4
Molecule B8 yielded a half-inhibitory concentration (IC50) in experiment [3] of 15 nM.

B9: Compound No. 82 (peptide)
peptide: FFXGDVFYGWYLCG
HELM: PEPTIDE1{[O=C(C[*:3])[*:2]].F.[meF].[CCCC[C@@H](C(=O)[*:2])N(C)[*:1]].[Sar].D.V.F.Y.[Sar].W.Y.L.C.G.[am]}$PEPTIDE1,PEPTIDE1,1:R3-14:R3$$$V2.0
SMILES: CCCC[C@H]1C(=O)N(C)CC(=O)N[C@@H](CC(=O)O)C(=O)N[C@@H](C(C)C)C(=O)N[C@@H](Cc2ccccc2)C(=O)N[C@@H](Cc2ccc(O)cc2)C(=O)N(C)CC(=O)N[C@@H](Cc2c[nH]c3ccccc23)C(=O)N[C@@H](Cc2ccc(O)cc2)C(=O)N[C@@H](CC(C)C)C(=O)N[C@H](C(=O)NCC(N)=O)CSCC(=O)N[C@@H](Cc2ccccc2)C(=O)N(C)[C@@H](Cc2ccccc2)C(=O)N1C
notes: Variant of Compound No. 71: mPhe7 to Phe (N-methyl removed)
As to B9, the IC50 in experiment [1] stood at 203 nM.

B10: Compound No. 71 (peptide)
peptide: FFXGDVFYGWYLCG
HELM: PEPTIDE1{[O=C(C[*:3])[*:2]].F.[meF].[CCCC[C@@H](C(=O)[*:2])N(C)[*:1]].[Sar].D.V.[meF].Y.[Sar].W.Y.L.C.G.[am]}$PEPTIDE1,PEPTIDE1,1:R3-14:R3$$$V2.0
SMILES: CCCC[C@H]1C(=O)N(C)CC(=O)N[C@@H](CC(=O)O)C(=O)N[C@@H](C(C)C)C(=O)N(C)[C@@H](Cc2ccccc2)C(=O)N[C@@H](Cc2ccc(O)cc2)C(=O)N(C)CC(=O)N[C@@H](Cc2c[nH]c3ccccc23)C(=O)N[C@@H](Cc2ccc(O)cc2)C(=O)N[C@@H](CC(C)C)C(=O)N[C@H](C(=O)NCC(N)=O)CSCC(=O)N[C@@H](Cc2ccccc2)C(=O)N(C)[C@@H](Cc2ccccc2)C(=O)N1C
notes: also called Compound 71
For B10, the IC50 in experiment [3] worked out at 10 nM.

B11: Compound No. 2 (peptide)
peptide: {CH2CO}-F[NMeA]NPHHSWRW[NMeNle][NMeNle]LCG-NH2
modifications: thioether N-14
SMILES: CCCC[C@H]1C(=O)N(C)[C@@H](CCCC)C(=O)N[C@@H](CC(C)C)C(=O)N[C@H](C(=O)NCC(N)=O)CSCC(=O)N[C@@H](Cc2ccccc2)C(=O)N(C)[C@@H](C)C(=O)N[C@@H](CC(N)=O)C(=O)N2CCC[C@H]2C(=O)N[C@@H](Cc2c[nH]cn2)C(=O)N[C@@H](Cc2c[nH]cn2)C(=O)N[C@@H](CO)C(=O)N[C@@H](Cc2c[nH]c3ccccc23)C(=O)N[C@@H](CCCNC(=N)N)C(=O)N[C@@H](Cc2c[nH]c3ccccc23)C(=O)N1C
notes: also called Compound 2
B11 showed an IC50 in experiment [3] of 43 nM. Compared with the last molecule, the IC50 is about 4.3-fold higher.
